Experimental data reported in patent US20230279130A1 (QILU PUGET SOUND BIOTHERAPEUTICS, published 2023).

Legend:
[1] = biological target: T1, full length human CCR8 (hCCR8) (human, UniProt P51685 1-355); test: cell-based or functional assay
[2] = biological target: T2, recombinant hCCR8 N-terminus fused at the N-terminal of Fc region of human IgG1 (human); test: SPR (Biacore 3000), Fab flowed over captured CCR8-fc; column head printed 'K0' (KD)
T2 construct: also called recombinant huCCR8-N terminus antigen; huCCR8 N-terminus protein; not shown: Fc region of human IgG1
T2 sequence (chain, as listed by the source): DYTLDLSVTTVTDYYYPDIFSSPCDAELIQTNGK
Protocol: (§1) FIGS. 1A-1D: Binding of anti-CCR8 Fabs to recombinant huCCR8-N terminus antigen (Seq No.1). Binding affinity of anti-CCR8 Fabs for huCCR8 N-terminus protein was determined by Biacore analysis. Digested anti-CCR8 Fab fragments were flowed over captured antigen.
(§2) The affinity of the candidate antibodies for human CCR8 was assessed using SPR on a Biacore 3000 instrument. Anti-CCR8 Fab fragments were flowed over the cells in the chip with multiple blank (running buffer) injections also run to subtract system artifacts. The data were aligned, double referenced, and fit using SCRUBBER 2™ software (BioLogic Software, Pty, Australia). […] The binding of anti-CCR8 antibodies to CCR8 was then examined in HEK293 cells or P815 cells transfected with full-length hCCR8.

[3] = biological target: T1, full length human CCR8 (hCCR8); test: cell-based or functional assay; remark: listed apart in the source
[4] = biological target: T2, recombinant hCCR8 N-terminus fused at …; test: SPR, Biacore 3000; Fab flowed over captured hCCR8 N-terminus-Fc
Protocol: as §1, §2

Binder	average IC50 of inhibition of CCL1-mediated chemotaxis of hCCR8 P815 cells [1]	Kd [2]	also measured
engineered anti CCR8 Fab 1047 (Fab, V domains shown, Fab made by digesting the antibody; also called Fab fragment of 1047) VH: EVQLVESGGGVVQPGRSLRLSCAASGFPFEPFAMNWVRQAPGKGLEWVARIRSKANNYATYYADSVKDRFAISRDNSKSTLYLLMHSLRFEDTAVYYCVRGRENNYGYAMDYWGQGTTVTVSS VL: DVVMTQSPPSLPVTLGQSASISCRSSQSLLHSNGITYLYWFLQRPGQSPRLLIYRMSNLASGVPDRFSGSGSGTDFTLRISRVEAEDVGVYYCMQHLTYPFTFGIGTKVEIK	1.09 nM	0.876 nM	–
Fab fragment of anti-CCR8 antibody 1434 (Fab, V domains shown) VH: EVQLVESGGGLVQPGGSLRLSCAASGFPFEPFAMNWVRQAPGKGLEWVGRIRSKANNYATYYADSVKDRFTISRDDSKRSLYLLMNSLKFEDTAVYYCVRGRENNYGYAMDYWGQGTTVTVSS VL: DVVMTQSPLSLPVTLGQPASISCRSSQSLLHSNGITYLYWFQQRPGQSPRRLIYRMSNLASGVPDRFSGSGSGTDFTLKISRVEAEDVGVYYCMQHLTYPFTFGIGTKVEIK	0.414 nM	–	–
engineered anti-CCR8 Fab 953 (Fab, V domains shown, Fab made by digesting the antibody) VH: EVQLVESGGGVVQPGRSLRLSCAASGFPFEPFAMNWVRQAPGKGLEWVARIRSKANNYATYYADSVKDRFAISRDNSKSTLYLLMHSLRFEDTAVYYCVRGRENRYGYAMDYWGQGTTVTVSS VL: DVVMTQSPPSLPVTLGQSASISCRSSQSLLHSNGITYLYWFLQRPGQSPRLLIYRMSNLASGVPDRFSGSGSGTDFTLRISRVEAEDVGVYYCMQHLTYPFTFGIGTKVEIK	0.15 nM	0.385 nM	–
anti-CCR8 antibody 1187 (antibody, V domains shown) VH: EVQLVESGGGVVQPGRSLRLSCAASGFPFEPFAMNWVRQAPGKGLEWVARIRSKANNYATYYADSVKDRFAISRDNSKRTLYLLMHSLRFEDTAVYYCVRGRENNYGYAMDYWGQGTTVTVSS VL: DVVMTQSPPSLPVTLGQSASISCRSSQSLLHSNGITYLYWFLQRPGQSPRLLIYRMSNLASGVPDRFSGSGSGTDFTLRISRVEAEDVGVYYCMQHLTYPFTFGIGTKVEIK	–	–	IC50, inhibition of chemotaxis of hCCR8-transfected P815 cells to 1 nM CCL1 (intact IgG1, Cell Titer Glo) [3]: 0.00403 µg/mL
Fab fragment of anti-CCR8 antibody 1187 (Fab, V domains shown, also called Fab 51) VH: EVQLVESGGGVVQPGRSLRLSCAASGFPFEPFAMNWVRQAPGKGLEWVARIRSKANNYATYYADSVKDRFAISRDNSKRTLYLLMHSLRFEDTAVYYCVRGRENNYGYAMDYWGQGTTVTVSS VL: DVVMTQSPPSLPVTLGQSASISCRSSQSLLHSNGITYLYWFLQRPGQSPRLLIYRMSNLASGVPDRFSGSGSGTDFTLRISRVEAEDVGVYYCMQHLTYPFTFGIGTKVEIK	0.254 nM	–	IC50 of inhibition of CCL1-mediated chemotaxis of hCCR8 P815 cells [1]: ~0.035 µg/mL; Kd [4]: 0.647 nM; fold improvement of binding affinity against the original anti-CCR8 antibody candidate [4]: 2.5 fold
